No end group written: not given here.
B1: PepII-89 scFv (scFv)
scFv: QVQLVQSGGGVVQPGRSLRLSCAASGFTFSSYGMHWVRQDPGKGLMWVSSISTDGSATKYADSVKGRFTISRDNAKNTVSLQMNSLRAEDTAVYYCVGGFLGWWGQGTLVTVSSGGGGSGGGGSGGGGSEIVLTQSPATLSLSPGERATLSCRASQSVGGSYLAWYQQKPGQAPRLLIYGASRRATGIPARFSGSGSGTDFTLTISSLQPEDFASYFCQQTNTFPLTFGGGTKVEIKRTVAAPTAAA
notes: also called anti-MRP3 PepII-89scFv; not shown: Myc and hexahistidine tags from the pET 22(+) vector, at the C terminus
B2: PepI-58 scFv (scFv)
scFv: EVQLVQSGGGLVQPGGSLRLSCSASGFTFSNYAMHWVRRAPGKGLEYVSAISSNGGSTYYADSVKGRFTISRDNPKNTLYLQMNSLRAEDTAVYYCVRGRPYPLDVWGKGTLVTVSSGGGGSGGGGSGGGGSQSVLTQPPSASGTPGQRVTISCSGSSSNIESHAVNWYQHLPGSAPKLLIYFNNHRPSGVPERFSASKSGTSASLAISGLQSEDEADYYCAAWDDSLNGPVFGGGTKLTVLGQPKAAPS
notes: also called anti-MRP3 PepI-58scFv; not shown: Myc and hexahistidine tags from the pET 22(+) vector, at the C terminus
B3: PepI-25 scFv (scFv)
scFv: EVQLVESGGGLVQPGGSLRLSCAASGFTFSNYAMTWVRQAPGKGLEWVSAISGSGGSTYYADSVKGRFTISRDNSKNTLYLQMNSLRAEDTAVYYCATGDLDYWGQGTTVTVSSGGGGSGGGGSGGGGSQTVVTQEPSLTVSPGGTVTLTCASSTGAVTSGYYPNWFQQKPGQAPRALIYSTSNKHSWTPARFSGSLLGGKAALTLSGVQPEDEAEYYCLLYYGGAQPYVVFGGGTKVTVLGQPKAAPS
notes: not shown: Myc and hexahistidine tags from the pET 22(+) vector
B4: PepIII-23 scFv (scFv)
scFv: EVQLVQSGGGLVKPGGSLRLSCAASGFSFNNYAGSWVRQAPGKGLEWISALSSGGDTTYYADSVAGRFAISRDNSKNTLYLQMHSLRAEDTAIYYCAQDPVVGAPGYFGLWGRGTLVTVSSGGGGSGGGGSGGGGSQSVLTQPPSASGSSGQSVTISCTGTSSDIGGYNYVSWYQQHPGKAPKLMIYEVSKRPSGVSDRFSGSKSGSTASLHISGLQAEDEADYYCSSYSSNNAPYVFGSGTKVAVLGQPKAAPS
notes: as for B3

How the values were obtained:
[1] = target: T1, MRP3-derived peptide I (PepI) (human, conjugated to BSA in the ELISA; biotinylated in BIAcore and on streptavidin beads (site of attachment not stated)); experiment: ELISA, plate coated with MRP3-derived peptides conjugated with BSA, purified scFv, HRP anti-His detection
T1 construct: Same peptide used as BSA conjugate (ELISA) and as biotinylated peptide (SPR on SA chip, bead assay); also called PepI antigen
T1 peptide: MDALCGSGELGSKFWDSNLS
Procedure: (§1) A 96-well plate was coated with 10 μg/ml of specific MRP3-derived peptides conjugated with BSA as antigen and BSA and other appropriate control antigens. The rest of the protocol was as described above except that the purified scFv antibodies were added in serial dilution to the wells, and the secondary Ab used was HRP-conjugated anti-His antibody at 1:5000 dilution (Invitrogen, Carlsbad, Calif.). To check for cross-reactivity of the recombinant scFvs, the ELISA plate was coated with different peptide antigens (i.e., PepI, PepII, PepIII, PepIV) derived from MRP3, conjugated to BSA with other controls. ScFv antibodies were then added at a 10 μg/ml concentration to each well.

[2] = target: T2, MRP3-derived peptide IV (PepIV) (human, also: conjugated to BSA, biotinylated, site not given here); experiment: as above
T2 construct: Same peptide used as BSA conjugate (ELISA) and as biotinylated peptide (SPR)
T2 peptide: KIRSPQSFFDTTPSGRI
Procedure: as §1

[3] = target: T3, MRP3-derived peptide III (PepIII) (human, also: conjugated to BSA, biotinylated, site not given here); experiment: as above
T3 construct: Same peptide used as BSA conjugate (ELISA) and as biotinylated peptide (SPR)
T3 peptide: DAMADSRQNNTSLRL
Procedure: as §1

[4] = target: T4, MRP3-derived peptide II (PepII) (human, also: conjugated to BSA, biotinylated, site not given here); experiment: SPR, BIAcore 3000, KA=kassoc/kdiss
T4 construct: Same peptide used as BSA conjugate (ELISA) and as biotinylated peptide (SPR on SA chip, bead assay); also called PepII antigen
T4 peptide: VHTENPDLTPCF
Procedure: (§2) Kinetic measurements of purified recombinant scFv were made by surface plasmon resonance using a BIAcore 3000 Biosensor (BIAcore, Piscataway, N.J.). Chips were functionalized with biotinylated peptides derived from MRP3 protein by using HEPES balanced salt solution (HBSS buffer), 10 mM HEPES pH 7.4, 150 mM NaCl, 3.4 mM EDTA, and 0.05% BIAcore surfactant P20. The scFv antibodies were diluted in HBSS buffer and passed over the SA chip at concentrations of 25, 200, and 1000 nM. The flow rate was kept at 30 μl/min, and the injection time was 3 min. Binding constants were calculated from the nonlinear fitting curve by using the BlAevaluation software (BIAcore).
(§3) The association and dissociation rates from the sensograms were in the same range for PepI-58 scFv, PepI-25 scFv, and PepII-89 scFv. […] The final binding affinity was determined by the software developed by BIAcore based on the kinetics calculated among various concentrations of antibody. PepI-25 scFv had kassoc=1.3×10⁵ (mol/L-s)⁻¹, kdiss=2.8×10⁻³ s⁻¹, and KA=kassoc/kdiss, was 4.6×10⁷ (mol/L)⁻¹.

[5] = target: T4, MRP3-derived peptide II (PepII); experiment: SPR, BIAcore 3000, biotinylated peptide on SA chip, scFv in flow
Procedure: as §2

[6] = target: T4, MRP3-derived peptide II (PepII); experiment: ELISA, plate coated with MRP3-derived peptides conjugated with BSA, purified scFv, HRP anti-His detection
Procedure: as §1

[7] = target: T1, MRP3-derived peptide I (PepI); experiment: SPR, BIAcore 3000, KA=kassoc/kdiss
Procedure: as §2, §3

[8] = target: T1, MRP3-derived peptide I (PepI); experiment: SPR, BIAcore 3000, biotinylated peptide on SA chip, scFv in flow
Procedure: as §2

[9] = target: T5, human multidrug resistance protein 3 (MRP3) (human, UniProt O15438 1-1527); experiment: indirect flow cytometry on viable D2159 cells (surface), anti-His-FITC detection
T5 construct: whole, on cells; ABC transporter; endogenous on human malignant glioma cell lines D54MG, D247MG and pediatric GBM line D2159; also called cell-surface-expressed MRP3; native MRP3

[10] = target: T1, MRP3-derived peptide I (PepI); experiment: SPR, BIAcore 3000, biotinylated pep-I on SA chip, scFv 25 to 1000 nM
Procedure: as §2, §3

[11] = target: T4, MRP3-derived peptide II (PepII); experiment: ELISA, peptide-BSA coated, purified scFv, anti-His-HRP
Procedure: as §1

[12] = target: T2, MRP3-derived peptide IV (PepIV); experiment: as above
Procedure: as §1

[13] = target: T3, MRP3-derived peptide III (PepIII); experiment: as above
Procedure: as §1

[14] = target: T5, human multidrug resistance protein 3 …; experiment: indirect flow cytometry on MRP3-expressing glioma cells
Procedure: To determine that the purified anti-MRP3 scFvs bind native MRP3 expressed on the surface of tumor cells, indirect fluorescence-activated cell sorting (FACS) was performed using MRP3-expressing D54MG and D247MG cells under both permeabilized and nonpermeabilized conditions. Indirect FACS analysis of MRP3 expression on the surface of viable malignant pediatric GBM cell line D2159 growing as neuroshperes was also performed.
For cytometric analysis of PepI-58, PepI-25, PepII-89, PepIII-23, and PepIV-17 scFv antibodies, D54MG and D247MG cells (1×10⁶/test) were harvested with 0.02% EDTA/PBS and fixed by resuspending them in 2-4 ml of 10% formaldehyde. After washing, the cells were blocked with 10% normal goat serum (NGS) with and without saponin for 20 min. Saponin was added to facilitate the permeabilization for examining all […] receptors. Cells were washed twice and incubated with anti-his (C-terminus)-FITC conjugated antibody (1:5000, Invitrogen, Carlsbad, Calif.) for an hour at room temperature. Finally, cells were suspended in 0.5% PFA/BSA and freshly analyzed by using a Becton Dickinson FACSort with CellQuest software (Becton Dickinson, San Jose, Calif.).

[15] = target: T1, MRP3-derived peptide I (PepI); experiment: ELISA, peptide-BSA coated, purified scFv, anti-His-HRP
Procedure: as §1

[16] = target: T3, MRP3-derived peptide III (PepIII); experiment: SPR, BIAcore, biotinylated peptide on chip

Binder | binding result [2] | binding result [3] | Ka [7] | binding result [9] | binding result [11] | binding result [12] | also measured
B1 | no binding (tested: 10 ug/ml) | no binding (tested: 10 ug/ml) | – | – | – | – | binding result [1]: no binding (tested: 10 ug/ml); Ka [4]: 1e+07 M⁻¹; koff [5]: 0.005 s⁻¹
B2 | no binding (tested: 10 ug/ml) | no binding (tested: 10 ug/ml) | 2.1e+07 M⁻¹ | binds | – | – | binding result [6]: no binding (tested: 10 ug/ml); koff [8]: 0.0034 s⁻¹
B3 | – | – | 4.6e+07 M⁻¹ | binds | no binding (tested: 10 µg/ml) | no binding (tested: 10 µg/ml) | koff [10]: 0.0028 s⁻¹; binding result [13]: no binding (tested: 10 µg/ml)
B4 | – | – | – | – | no binding (tested: 10 µg/ml) | no binding (tested: 10 µg/ml) | binding result [14]: no binding; binding result [15]: no binding (tested: 10 µg/ml); binding result [16]: binds

— patent US20100290984A1 (DUKE UNIVERSITY, published 2010)
